Sequences and labels used below:
B1: LINE1-mini (parent)
chain: GGCAGAGCUCAACACAGCGUGGCAAAGUGGCUGUGGCUAGACUGCC

In the series the parent is B1. Nature of the series: self-cleavage, relative activity (ratio to wild type); higher = more cleavage; in vitro, sequencing; the parent is a self-cleaving ribozyme.
On to G35A C46G, for which the self-cleavage worked out at 0.15.

As for G35A C46A, the self-cleavage worked out at 0.11.

For the variant G35A C46U, the self-cleavage was determined as 0.1.

As for C37G G44A, the self-cleavage came to 0.04.

For C37G G44U, the self-cleavage is 0.07.

Regarding C37G G44C, the self-cleavage was 0.03.

As for U38A C45A, the self-cleavage was 0.2.

As for U38A C45G, the self-cleavage turned out to be 0.26.

For U38A C45U, the self-cleavage was found to be 0.59.

Take C37U G40U: the self-cleavage was 0.16.

With C37U G40C, the self-cleavage is 0.24.

Take C37U G40A: the self-cleavage was found to be 0.14.

Take G35A U43A: the self-cleavage was found to be 0.09.

Consider G35A U43C, for which the self-cleavage worked out at 0.07.

As to G35A U43G, the self-cleavage is 0.03.

With G35U G36C, the self-cleavage is 0.11.

Consider G35U G36U, for which the self-cleavage was found to be 0.1.

For G35U G36A, the self-cleavage amounted to 0.16.

Turning to G36A A41C, the self-cleavage amounted to 0.05.

As to G36A A41U, the self-cleavage is 0.44.

With G36A A41G, the self-cleavage came to 0.2.

On to G35A U38G, for which the self-cleavage worked out at 0.02.

On to G35A U38C, for which the self-cleavage turned out to be 0.06.

In the case of G35A U38A, the self-cleavage amounted to 0.1.

As for C37A C45A, the self-cleavage came out at 0.19.

Regarding C37A C45G, the self-cleavage was 0.17.

C37A C45U: the self-cleavage came to 0.08.

On to C37G C42U, for which the self-cleavage was 0.02.

Regarding C37G C42A, the self-cleavage is 0.09.

C37G C42G: the self-cleavage amounted to 0.02.

As to G36A A39C, the self-cleavage was found to be 0.27.

In the case of G36A A39U, the self-cleavage came out at 0.22.

In the case of G36A A39G, the self-cleavage worked out at 0.39.

In the case of U38C A41U, the self-cleavage was found to be 0.13.

For U38C A41G, the self-cleavage was determined as 0.11.

As to U38C A41C, the self-cleavage turned out to be 0.04.

Take G35U C45G: the self-cleavage came out at 0.07.

For G35U C45U, the self-cleavage is 0.12.

In the case of G35U C45A, the self-cleavage came to 0.12.

Turning to G36U C46A, the self-cleavage came out at 0.1.

As to G36U C46U, the self-cleavage was found to be 0.1.

For G36U C46G, the self-cleavage turned out to be 0.08.

With G36C C45A, the self-cleavage came to 0.07.

Take G36C C45U: the self-cleavage was 0.29.

On to G36C C45G, for which the self-cleavage was 0.04.

With U38C C45A, the self-cleavage amounted to 0.35.

As for U38C C45U, the self-cleavage is 1.38.

On to U38C C45G, for which the self-cleavage stood at 0.47.

With U38C U43C, the self-cleavage was 0.11.

With U38C U43G, the self-cleavage turned out to be 0.07.

Regarding U38C U43A, the self-cleavage amounted to 0.04.

G35U G40A: the self-cleavage turned out to be 0.09.

For the variant G35U G40U, the self-cleavage came to 0.12.

For the variant G35U G40C, the self-cleavage came out at 0.06.

For U38C C42U, the self-cleavage was 0.07.

Regarding U38C C42G, the self-cleavage was determined as 0.15.

With U38C C42A, the self-cleavage turned out to be 0.07.

Take C37A G40C: the self-cleavage came out at 0.2.

Turning to C37A G40A, the self-cleavage was found to be 0.19.

As to C37A G40U, the self-cleavage was found to be 0.2.

Take G35U A39C: the self-cleavage came out at 0.11.

On to G35U A39G, for which the self-cleavage is 0.22.

Turning to G35U A39U, the self-cleavage amounted to 0.1.

Turning to C37U A41G, the self-cleavage amounted to 0.04.

With C37U A41C, the self-cleavage came out at 0.02.

As to C37U A41U, the self-cleavage is 0.06.

In the case of U38G C46U, the self-cleavage was 0.04.

Consider U38G C46A, for which the self-cleavage came out at 0.02.

As to U38G C46G, the self-cleavage was 0.02.

G36U G40C: the self-cleavage turned out to be 0.09.

As to G36U G40U, the self-cleavage came out at 0.19.

On to G36U G40A, for which the self-cleavage stood at 0.13.

Regarding U38A G40C, the self-cleavage was determined as 0.09.

As for U38A G40A, the self-cleavage came out at 0.17.

Turning to U38A G40U, the self-cleavage worked out at 0.18.

As to U38G A39G, the self-cleavage amounted to 0.02.

On to U38G A39U, for which the self-cleavage was found to be 0.13.

With U38G A39C, the self-cleavage was 0.1.

With G35U U38A, the self-cleavage is 0.12.

As for G35U U38G, the self-cleavage was found to be 0.03.

As for G35U U38C, the self-cleavage is 0.09.

As to U38A A41C, the self-cleavage is 0.04.

As for U38A A41G, the self-cleavage was 0.14.

With U38A A41U, the self-cleavage was determined as 0.1.

Take G35U G44A: the self-cleavage came to 0.13.

With G35U G44U, the self-cleavage is 0.11.

Regarding G35U G44C, the self-cleavage stood at 0.07.

For the variant U38C G40U, the self-cleavage came out at 0.1.

Take U38C G40A: the self-cleavage amounted to 0.07.

U38C G40C: the self-cleavage turned out to be 0.06.

For the variant G35C G36U, the self-cleavage came to 0.09.

With G35C G36C, the self-cleavage is 0.03.

With G35C G36A, the self-cleavage worked out at 0.05.

As for G35A G44C, the self-cleavage was determined as 0.07.

As for G35A G44A, the self-cleavage is 0.1.

As for G35A G44U, the self-cleavage is 0.09.

G35A C45U: the self-cleavage was found to be 0.13.

In the case of G36C C42U, the self-cleavage came to 0.09.

Turning to G36C C42G, the self-cleavage came to 0.07.

As for G36C C42A, the self-cleavage is 0.05.

With G35U U43G, the self-cleavage was found to be 0.07.

As for G35U U43C, the self-cleavage was 0.05.

G35U U43A: the self-cleavage was determined as 0.15.

For C37U U43G, the self-cleavage came out at 0.11.

With C37U U43A, the self-cleavage came out at 0.11.

Consider C37U U43C, for which the self-cleavage was determined as 0.06.

Turning to G36U U43C, the self-cleavage is 0.06.

With G36U U43A, the self-cleavage is 0.04.

For G36U U43G, the self-cleavage was determined as 0.1.

As for G36U A39G, the self-cleavage was found to be 0.05.

In the case of G36U A39C, the self-cleavage was found to be 0.08.

With G36U A39U, the self-cleavage worked out at 0.07.

For C37A A39C, the self-cleavage is 0.12.

For C37A A39G, the self-cleavage was found to be 0.05.

In the case of C37A A39U, the self-cleavage turned out to be 0.22.

As to G36A G44U, the self-cleavage turned out to be 0.15.

In the case of G36A G44A, the self-cleavage came out at 0.43.

Turning to G36A G44C, the self-cleavage came to 0.15.

G36C C46G: the self-cleavage was determined as 0.08.

Consider G36C C46U, for which the self-cleavage was found to be 0.05.

G36C C46A: the self-cleavage turned out to be 0.13.

Consider C37G G40U, for which the self-cleavage was 0.08.

In the case of C37G G40C, the self-cleavage worked out at 0.08.

In the case of C37G G40A, the self-cleavage is 0.08.

For the variant C37G U38G, the self-cleavage turned out to be 0.01.

For the variant C37G U38C, the self-cleavage is 0.04.

Regarding C37G U38A, the self-cleavage came out at 0.03.

For the variant G36C C37U, the self-cleavage was 0.06.

On to G36C C37G, for which the self-cleavage turned out to be 0.07.

G36C C37A: the self-cleavage was 0.1.

G36U A41U: the self-cleavage was determined as 0.1.

In the case of G36U A41G, the self-cleavage came out at 0.15.

G36U A41C: the self-cleavage was found to be 0.05.

Turning to G35A G40U, the self-cleavage came out at 0.05.

With G35A G40A, the self-cleavage came out at 0.07.

As for G35A G40C, the self-cleavage was 0.08.

G35U: the self-cleavage worked out at 0.16.

Turning to G35C, the self-cleavage is 0.11.

Turning to G36U G44C, the self-cleavage amounted to 0.08.

For G36U G44U, the self-cleavage is 0.09.

As for G36U G44A, the self-cleavage amounted to 0.06.

With G36C G44A, the self-cleavage was 0.04.

Regarding G36C G44C, the self-cleavage was found to be 0.11.

For the variant G36C G44U, the self-cleavage amounted to 0.08.

Consider U38G C45G, for which the self-cleavage was found to be 0.05.

In the case of U38G C45U, the self-cleavage was 0.05.

Turning to U38G C45A, the self-cleavage stood at 0.04.

Take C37G C46U: the self-cleavage is 0.04.

As to C37G C46A, the self-cleavage amounted to 0.02.

C37G C46G: the self-cleavage was 0.17.

On to C37G A41G, for which the self-cleavage was found to be 0.03.

For the variant C37G A41U, the self-cleavage worked out at 0.03.

Regarding C37G A41C, the self-cleavage is 0.02.

Turning to U38A U43C, the self-cleavage turned out to be 0.13.

For the variant U38A U43A, the self-cleavage was 0.03.

In the case of C37G C45G, the self-cleavage amounted to 0.08.

With C37G C45U, the self-cleavage turned out to be 0.03.

Consider C37G C45A, for which the self-cleavage worked out at 0.03.

As to G35C C45U, the self-cleavage was determined as 0.08.

As for G35C C45A, the self-cleavage was 0.06.

In the case of G35C C45G, the self-cleavage worked out at 0.03.

As to G36C G40U, the self-cleavage worked out at 0.18.

With G36C G40A, the self-cleavage was found to be 0.09.

G36C G40C: the self-cleavage amounted to 0.08.

Take C37A C46A: the self-cleavage worked out at 0.05.

In the case of C37A C46U, the self-cleavage turned out to be 0.04.

As for C37A C46G, the self-cleavage stood at 0.06.

Values taken from the RNAGym collection of RNA variant scans (doi:10.7554/elife.90254).
